This passage reports peak wavelength shift after 80 minutes of injection and exponential constant of the fit to the association phase (peak wavelength shift) results from article PMC4209447.

The target of assay [1] is protein A/G (recombinant fusion protein with protein A and protein G binding sites).
For assay [2] the target is unchanged. The source holds these as a separate data set.

With Human IgG protein (antibody), in assay [1], the peak wavelength shift after 80 minutes of injection worked out at 6 nm. Further, the exponential constant of the fit to the association phase (peak wavelength shift) in assay [2] is 0.000533.
